In PMC3753655:

Target: His6-MS2 coat protein (bacteriophage MS2) (UniProt P03612)
Experiment: SEC; Superose 6 (10/300 GL); supernatants of crude cell extracts of E. coli JM101 expression cultures; 50 mM Tris-HCl pH 7.5, 300 mM NaCl; with or without benzonase treatment; reference proteins 669, 400 and 29 kDa

His6-MS2 coat protein (from UniProt P03612 1-130) (natural protein)
stoichiometry N: 2
